B1: BBS5-GST (Bardet-Biedl Syndrome 5 protein in fusion with glutathione-S-transferase) (natural protein, mouse, UniProt Q9CZQ9 1-341, looked up)
chain: MSVLDVLWEDRDVRFDVSSQQMKTRPGEVLIDCLDSIEDTKGNNGDRGRLLVTNLRIIWHSLALPRVNLSIGYNCILNITTRTANSKLRGQTEALYILTKCNTTRFEFIFTNLVPGSPRLFTSVIAVHRAYETSKMYRDFKLRSAVIQNKQLRLLPQEHVYDKINGVWNLSSDQGNLGTFFITNVRIVWHANMNDSFNVSIPYLQIRSIKIRDSKFGLALVIESSQQSGGYVLGFKIDPVEKLQESVKEINSLHKVYSASPIFGVNYEMEEKPQPLEALTVEQIQDDVEIDSDDHTDAFVAYFADGNKQQDREPVFSEELGLAIEKLKDGFTLQGLWEVMS
notes: BBS5, mouse; open-reading frame amplified from murine retinal cDNA; cDNA for His-tagged BBS5 was cloned into pGEX-4T-1 at the EcoRI site, fused to the C-terminus of GST; not shown: GST, N-terminal, kept

What was measured:
Test in all cases: pull-down; 6.6 uM I16C-Alexa546-ARR1 mixed with 0.1 uM BBS5L-GST, BBS5-GST or GST, overnight at 4°C; immunoprecipitated with anti-GST antibody on magnetic beads; fluorescence of the captured arrestin1 measured
[1] = molecular target: BBS5L-GST (splice variant of BBS5 in fusion with glutathione-S-transferase) (mouse)
[2] = molecular target: BBS5L-GST phosphorylated by protein kinase C (mouse)
[3] = molecular target: T1, I16C-Alexa546-ARR1 (I16C-substituted bovine arrestin1 labeled with AlexaFluor-546) (bovine, UniProt P08168 1-404, I16C, AlexaFluor-546 on the reactive sulfhydryl group generated by I16C); conditions: both partners purified
T1 construct: arrestin1 (S-arrestin), bovine, with the substitution I16C; also called ARR1-Alexa546; fluorescently labeled arrestin1
T1 sequence (P08168 whole entry I16C): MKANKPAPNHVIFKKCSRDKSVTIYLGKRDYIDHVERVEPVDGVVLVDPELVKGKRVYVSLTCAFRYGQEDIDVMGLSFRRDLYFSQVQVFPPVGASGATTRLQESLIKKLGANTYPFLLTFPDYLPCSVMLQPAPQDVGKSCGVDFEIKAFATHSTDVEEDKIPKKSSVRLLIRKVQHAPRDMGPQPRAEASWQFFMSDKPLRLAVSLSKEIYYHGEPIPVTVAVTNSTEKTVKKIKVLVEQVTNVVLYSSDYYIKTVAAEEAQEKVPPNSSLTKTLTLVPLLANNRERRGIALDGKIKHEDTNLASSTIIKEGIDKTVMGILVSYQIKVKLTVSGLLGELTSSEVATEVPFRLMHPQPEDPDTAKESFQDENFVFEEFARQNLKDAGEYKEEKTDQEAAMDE

Molecule	amount of arrestin1 bound relative to BBS5 [1]	percent reduction of arrestin1 pull-down against unphosphorylated BBS5L [2] [%]	binding result [3]
I16C-Alexa546-ARR1 (I16C-substituted bovine arrestin1 labeled with AlexaFluor-546) (from UniProt P08168 1-404) (natural protein)	0.5 fold of BBS5	31	–
B1	–	–	binds

From PMC4750968, “A Splice Variant of Bardet-Biedl Syndrome 5 (BBS5) Protein that Is Selectively Expressed in Retina” (PLoS ONE, 2016)
